The data set concerns the molecule itself. The experiment in a line: SEC; purified recombinant full-length TLR7 run against calibration standards (670, 158, 44, 17 and 1.35 kDa); solubilized with Fos-Choline 14. On the technique in general: In gel filtration, larger molecules generally elute earlier.

These results are taken from publication PMC4718629, “Molecular Determinants of GS-9620-Dependent TLR7 Activation” (PLoS ONE, 2016).

B1: full-length recombinant human TLR7 (residues 27-1049) with N-terminal 6HIS tag (receptor, UniProt Q9NYK1 27-1049, looked up)
chain: ARWFPKTLPCDVTLDVPKNHVIVDCTDKHLTEIPGGIPTNTTNLTLTINHIPDISPASFHRLDHLVEIDFRCNCVPIPLGSKNNMCIKRLQIKPRSFSGLTYLKSLYLDGNQLLEIPQGLPPSLQLLSLEANNIFSIRKENLTELANIEILYLGQNCYYRNPCYVSYSIEKDAFLNLTKLKVLSLKDNNVTAVPTVLPSTLTELYLYNNMIAKIQEDDFNNLNQLQILDLSGNCPRCYNAPFPCAPCKNNSPLQIPVNAFDALTELKVLRLHSNSLQHVPPRWFKNINKLQELDLSQNFLAKEIGDAKFLHFLPSLIQLDLSFNFELQVYRASMNLSQAFSSLKSLKILRIRGYVFKELKSFNLSPLHNLQNLEVLDLGTNFIKIANLSMFKQFKRLKVIDLSVNKISPSGDSSEVGFCSNARTSVESYEPQVLEQLHYFRYDKYARSCRFKNKEASFMSVNESCYKYGQTLDLSKNSIFFVKSSDFQHLSFLKCLNLSGNLISQTLNGSEFQPLAELRYLDFSNNRLDLLHSTAFEELHKLEVLDISSNSHYFQSEGITHMLNFTKNLKVLQKLMMNDNDISSSTSRTMESESLRTLEFRGNHLDVLWREGDNRYLQLFKNLLKLEELDISKNSLSFLPSGVFDGMPPNLKNLSLAKNGLKSFSWKKLQCLKNLETLDLSHNQLTTVPERLSNCSRSLKNLILKNNQIRSLTKYFLQDAFQLRYLDLSSNKIQMIQKTSFPENVLNNLKMLLLHHNRFLCTCDAVWFVWWVNHTEVTIPYLATDVTCVGPGAHKGQSVISLDLYTCELDLTNLILFSLSISVSLFLMVMMTASHLYFWDVWYIYHFCKAKIKGYQRLISPDCCYDAFIVYDTKDPAVTEWVLAELVAKLEDPREKHFNLCLEERDWLPGQPVLENLSQSIQLSKKTVFVMTDKYAKTENFKIAFYLSHQRLMDEKVDVIILIFLEKPFQKSKFLQLRKRLCGSSVLEWPTNPQAHPYFWQCLKNALATDNHVAYSQVFKETV
notes: human Toll-like receptor 7 (TLR7), residues 27-1049; also called recTLR7; recombinant TLR7
For orientation: stoichiometry N means a count of units in the complex or per binding partner. On to B1, for which the “stoichiometry N” value is 2.
